# From US20180231567A1
# Columns and labels:
# [1] = target: serum IgE of the 10 allergic adults sensitized to peanut extract used for the inhibition experiments (Example 3) (human); assay: ELISA cross-inhibition; Ara h 6 immobilized, sera pre-incubated with competing allergen at 0.1, 1 and 10 ug/ml
# [2] = target: serum IgE of the 10 allergic adults sensitized to peanut extract used for the inhibition experiments (Example 3) (human); assay: ELISA cross-inhibition; Ara h 7.0201 immobilized, sera pre-incubated with competing allergen at 0.1, 1 and 10 ug/ml
binder,measurement,setting,value
"Ara h 2 isotype 2.0201, as expressed in example 1 (His fusion protein) (protein) MSHHHHHHIEGRTMRQQWELQGDRRCQSQLERANLRPCEQHLMQKIQRDEDSYGRDPYSPSQDPYSPSQDPDRRDPYSPSPYDRRGAGSSQHQERCCNELNEFENNQRCMCEALQQIMENQSDRLQGRQQEQQFKRELRNLPQQCGLRAPQRCDLEVESGGRDRY",% inhibition (median),[1],43%
same,% inhibition (median),[2],16%
